To fix the notation:
B1: Caspase-8 (Homo sapiens), Q14790 (parent)
chain: MDFSRNLYDIGEQLDSEDLASLKFLSLDYIPQRKQEPIKDALMLFQRLQEKRMLEESNLSFLKELLFRINRLDLLITYLNTRKEEMERELQTPGRAQISAYRVMLYQISEEVSRSELRSFKFLLQEEISKCKLDDDMNLLDIFIEMEKRVILGEGKLDILKRVCAQINKSLLKIINDYEEFSKERSSSLEGSPDEFSNGEELCGVMTISDSPREQDSESQTLDKVYQMKSKPRGYCLIINNHNFAKAREKVPKLHSIRDRNGTHLDAGALTTTFEELHFEIKPHDDCTVEQIYEILKIYQLMDHSNMDCFICCILSHGDKGIIYGTDGQEAPIYELTSQFTGLKCPSLAGKPKVFFIQACQGDNYQKGIPVETDSEEQPYLEMDLSSPQTRYIPDEADFLLGMATVNNCVSYRNPAEGTWYIQSLCQSLRERCPRGDDILTILTEVNYEVSNKDDKKNMGKQMPQPTFTLRKKLVFPSD

Variants of B1 are the subject of the experiment. The settings on record: with bcl2_human BCL2, P10415.
bcl2_human BCL2, P10415, sequence (P10415 whole entry): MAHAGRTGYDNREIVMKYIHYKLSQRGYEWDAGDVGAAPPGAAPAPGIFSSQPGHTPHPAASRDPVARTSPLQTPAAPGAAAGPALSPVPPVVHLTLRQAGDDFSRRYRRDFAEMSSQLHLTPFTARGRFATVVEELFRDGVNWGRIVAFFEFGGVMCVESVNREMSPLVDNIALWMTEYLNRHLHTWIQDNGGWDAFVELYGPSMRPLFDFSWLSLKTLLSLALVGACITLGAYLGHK
On to C360S, for which the “effect of a mutation on the interaction” value is reported as “increasing interaction”.
